Results from the supplement of paper PMC10567573.

B1: ZBED1 (parent)
chain: EQVFSLGDGVSGGFFGIRDSSFL

Variants of: B1
Experiment: protein stability index of a GFP-peptide fusion (GPS, HEK-293T) (PSI 1-6); higher = more stable
Settings: c terminus: native
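Note: lentivirally expressed fusions sorted by FACS into six bins by GFP to DsRed ratio, PSI derived from sequencing read proportions per bin multiplied by bin number.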

Variant | protein stability index
F4E | 4.55
F4S | 4.29
F4Q | 4.12
F4T | 3.75
F4P | 4.11
F4A | 4.22
F4D | 4.38
F4W | 3.08
F4K | 4.06
F4G | 4.16
F4V | 3.85
F4I | 3.63
F4M | 3.63
F4L | 3.36
F4R | 4.16
F4Y | 3.47
F4N | 4.11
F4H | 4.16
F4C | 3.18
G13W | 1.82
G13I | 1.99
G13D | 3.73
G13Y | 2.04
G13K | 3.08

Variant | protein stability index
G13V | 2.22
G13C | 3.08
G13N | 3.58
G13P | 3.49
G13Q | 3.48
G13F | 1.98
G13S | 3.49
G13M | 2.2
G13R | 2.96
G13A | 3.28
G13T | 3.17
G13H | 3.41
G13L | 2.23
G13E | 4.08
Q2C | 1.96
Q2H | 3.22
Q2S | 3.44
Q2W | 2.03
Q2T | 3.04
Q2M | 1.65
Q2K | 2.74
Q2P | 3.46
Q2D | 3.7
Q2A | 2.44

Variant | protein stability index
Q2F | 1.72
Q2G | 3.05
Q2N | 2.98
Q2L | 1.8
Q2I | 1.84
Q2Y | 2.43
Q2V | 2.17
Q2E | 3.88
Q2R | 3
I17V | 3.87
I17W | 3.52
I17D | 4.55
I17L | 3.68
I17P | 4
I17A | 4.37
I17F | 3.42
I17R | 4.2
I17C | 3.76
I17M | 3.75
I17N | 4.02
I17G | 4.17
I17Y | 3.28
I17T | 4.3
I17S | 4.2

Variant | protein stability index
I17H | 4.03
I17K | 3.8
I17E | 4.71
I17Q | 4.31
G9D | 4
G9S | 3.27
G9F | 2.55
G9I | 2.47
G9H | 3.48
G9A | 3.15
G9V | 3.09
G9N | 3.46
G9M | 2.9
G9P | 3.29
G9K | 2.99
G9W | 1.51
G9E | 3.25
G9Q | 3.16
G9R | 2.86
G9C | 2.32
G9Y | 2.51
G9L | 2.01
G9T | 3.1
F15G | 3.85

Variant | protein stability index
F15S | 4.43
F15Q | 4.63
F15R | 4.13
F15V | 3.65
F15I | 3.67
F15C | 3.64
F15K | 4.1
F15L | 3.7
F15P | 4.25
F15H | 4.11
F15T | 4.08
F15N | 4.21
F15Y | 3.52
F15M | 3.82
F15W | 2.88
F15D | 4.15
F15A | 4.32
F15E | 3.78
F14N | 4.62
F14Q | 4.45
F14P | 4.08
F14E | 4.11
F14A | 3.82
F14I | 3.21

Variant | protein stability index
F14M | 3.74
F14Y | 3.18
F14T | 4.12
F14L | 3.67
F14R | 4
F14K | 4.3
F14W | 3.44
F14V | 3
F14G | 4.44
F14S | 3.71
F14C | 4.21
F14H | 4.24
F14D | 4.16
D8Y | 2.01
D8E | 3.04
D8H | 2.73
D8A | 2.7
D8L | 1.99
D8F | 1.61
D8R | 2.61
D8I | 1.41
D8W | 1.91
D8V | 1.57
D8C | 2.07

Variant | protein stability index
D8G | 3.24
D8T | 2.91
D8K | 2.69
D8Q | 2.73
D8S | 3.22
D8M | 1.47
D8P | 2.73
D8N | 2.88
G12F | 2.01
G12N | 3.6
G12M | 2.88
G12I | 1.42
G12D | 4.06
G12C | 2.49
G12V | 2.45
G12L | 2.3
G12K | 3.52
G12T | 3.28
G12P | 3.5
G12Y | 2.05
G12E | 4.06
G12A | 3.41
G12R | 2.92
G12W | 1.72

Variant | protein stability index
G12S | 3.55
G12H | 3.01
G12Q | 3.52
S11L | 3.09
S11T | 3.18
S11C | 2.48
S11D | 4.01
S11G | 3.26
S11H | 3.15
S11I | 2
S11E | 4.02
S11A | 3.73
S11F | 2.35
S11Q | 3.05
S11Y | 2.17
S11R | 2.89
S11K | 3.11
S11N | 3.63
S11W | 2.39
S11M | 2.81
S11V | 2.9
S11P | 2.76
S5T | 3.51
S5H | 3.36

Variant | protein stability index
S5P | 3.2
S5R | 3.29
S5N | 3.96
S5G | 3.27
S5K | 3.31
S5F | 1.75
S5Y | 2.63
S5A | 2.98
S5W | 1.83
S5M | 2.67
S5E | 3.81
S5C | 2.6
S5L | 2.24
S5Q | 3.34
S5I | 2.16
S5V | 2.44
S5D | 3.74
V3E | 4.17
V3P | 4.06
V3K | 3.7
V3M | 3.15
V3F | 2.52
V3C | 2.92
V3I | 2.9

Variant | protein stability index
V3D | 4.19
V3L | 2.91
V3Q | 4.23
V3T | 3.6
V3W | 2.55
V3G | 4.03
V3N | 3.82
V3A | 4.03
V3Y | 3.01
V3H | 3.99
V3R | 3.55
V3S | 3.63
L6G | 4.31
L6A | 3.92
L6W | 3.01
L6S | 4.12
L6I | 3.14
L6E | 4.69
L6Q | 3.5
L6C | 3.76
L6T | 3.27
L6V | 3.08
L6H | 3.97
L6R | 4.26

Variant | protein stability index
L6F | 3.22
L6D | 3.73
L6M | 3.2
L6Y | 3.42
L6N | 3.4
L6K | 3.86
L6P | 3.96
E1Y | 3.12
E1T | 2.35
E1V | 3.14
E1W | 1.62
G7D | 4.29
G7Y | 2.34
G7R | 2.94
G7A | 2.98
G7C | 2.61
G7V | 2.19
G7Q | 3.46
G7E | 3.84
G7S | 2.94
G7F | 1.99
G7M | 2.52
G7K | 3.16
G7I | 1.9

Variant | protein stability index
G7H | 3.34
G7T | 3.23
G7N | 3.28
G7L | 2.18
G7P | 3.51
G7W | 1.7
R18H | 2.62
R18C | 1.98
R18K | 3.96
R18N | 3.9
R18D | 3.98
R18F | 2.07
R18L | 2.78
R18S | 3.65
R18G | 3.42
R18Q | 3.38
R18A | 2.92
R18W | 2.21
R18T | 3.32
R18P | 3.28
R18E | 3.93
R18Y | 2.49
R18M | 2.71
R18I | 2.26

Variant | protein stability index
R18V | 2.14
V10E | 3.62
V10N | 3.8
V10L | 3
V10I | 2.92
V10Q | 3.92
V10M | 2.57
V10R | 4.32
V10D | 3.78
V10P | 3.86
V10F | 2.75
V10W | 2.61
V10G | 3.89
V10T | 3.78
V10S | 4.03
V10A | 3.87
V10H | 3.55
V10Y | 3.38
V10C | 3.35
V10K | 3.6
D19C | 2.26
D19E | 2.92
D19F | 3.4
D19H | 2.19

Variant | protein stability index
D19G | 2.87
D19I | 1.82
D19A | 1.3
G16A | 2.62
G16Y | 2.29
G16P | 2.85
G16V | 1.85
G16T | 2.77
G16H | 3.56
G16K | 3.29
G16R | 3.14
G16F | 1.91
G16Q | 2.93
G16E | 2.83
G16C | 1.84
G16L | 2.8
G16S | 2.05
G16I | 1.57
G16W | 1.76
G16D | 3.77
G16M | 2.17
G16N | 3.46
